Earlier results, collected in paper PMC6964287.

Legend:
Asp85 = Asp85 (UniProt position 98, WARYADWLFTT); test: NMR; settings: membrane-associated pHLIP; protonation linked to bilayer insertion
Asp96 = Asp96 (UniProt position 109, PLLLLDLALLV); test: NMR; settings: membrane-associated pHLIP; protonation linked to bilayer insertion

## pHLIP (pH-Low Insertion Peptide), peptide derived from bacteriorhodopsin helix C (Halobacterium salinarum)
Asp85
  pKa: 5.82 ± 0.08
Asp96
  pKa: 6.08 ± 0.08
